Reference: patent publication US20250011433A1 (published 2025)
Changes are numbered by the printed parent chain.

B1: G998 (Fc fusion)
chain: EPKSCDKTHTCPPCPAPELLGGPSVFLFPPKPKDTLMISRTPEVTCVVVDVEFEDPEVKFNWYVDGVEVHNAKTKPREEQYASTYRVVSVLTVLHQDWLNGKEYKCKVTNKALPAPIEKTISKAKGQPREPQVYTLPPSRDELTKNQVSLTCLVKGFYPSDIAVEWESNGQPENNYKTTPPVLDSDGSFFLYSKLTVDKSRWQQGNVFSCSVMHEALHNHYTQKSLSLSPGKERKCCVECPPCP
B2: G997 (Fc fusion)
chain: B1 chain with A82N
B3: G996 (Fc fusion)
chain: B1 chain with G21R, A82N

Molecular target: C1q (UniProt P02745 23-245; P02746 28-253; P02747 29-245)
Assay: ELISA

Chain of C1q (P02745 23-245, chain 1 of 3): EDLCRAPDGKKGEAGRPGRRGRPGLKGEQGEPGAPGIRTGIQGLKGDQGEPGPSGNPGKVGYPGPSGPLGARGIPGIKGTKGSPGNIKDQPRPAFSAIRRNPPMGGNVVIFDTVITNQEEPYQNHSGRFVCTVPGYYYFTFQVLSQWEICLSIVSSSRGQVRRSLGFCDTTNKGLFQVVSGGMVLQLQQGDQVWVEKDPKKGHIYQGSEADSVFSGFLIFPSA
Chain of C1q (P02746 28-253, chain 2 of 3): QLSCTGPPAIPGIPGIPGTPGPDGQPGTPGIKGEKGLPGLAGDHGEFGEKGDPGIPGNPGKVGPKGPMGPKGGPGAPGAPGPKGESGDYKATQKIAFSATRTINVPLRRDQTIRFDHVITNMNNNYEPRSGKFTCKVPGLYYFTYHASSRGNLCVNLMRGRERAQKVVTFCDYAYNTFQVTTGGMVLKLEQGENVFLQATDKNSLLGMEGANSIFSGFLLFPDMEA
Chain of C1q (P02747 29-245, chain 3 of 3): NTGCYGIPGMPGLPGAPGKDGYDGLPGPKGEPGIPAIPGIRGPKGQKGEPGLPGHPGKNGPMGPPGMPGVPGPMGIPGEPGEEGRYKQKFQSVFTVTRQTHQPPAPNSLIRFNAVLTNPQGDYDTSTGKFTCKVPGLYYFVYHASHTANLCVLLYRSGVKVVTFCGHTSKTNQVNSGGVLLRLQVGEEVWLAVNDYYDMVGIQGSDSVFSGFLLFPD

| Binder | EC50 |
| --- | --- |
| B1 | 0.334 µg/mL |
| B2 | 0.0166 µg/mL |
| B3 | 0.278 µg/mL |
